This assay addresses activation domain of SRC-3 (ACTR), labelled with AlexaFluor 647, with a ssDNA handle. Description: FRET or BRET. On the technique in general: In BRET a luciferase serves as donor, and the signal depends on an acceptor being close.

In turn, “nuclear-coactivator binding domain of the CBP/p300 transcription factor (NCBD), labelled with LD750 (domain or fragment)” displayed a most likely lifetime of the intermediate state (transient encounter complex), τi of 96 μs.

For the origin of these results see paper doi:10.1101/2023.12.08.570755.
